Common to all, as to type: biochemical, Mycolicibacterium smegmatis
Conditions in all cases: 50 mM sodium phosphate pH 7.0, 37 °C, 15 min

The subject of series [1] is NC(=O)c1cccnc1. In words: colorimetric ammonia formation, Lineweaver-Burk. The source says: (§1) colorimetric ammonia formation, Lineweaver-Burk on PzaA
The subject of series [2] is NC(=O)c1cnccn1. Briefly: colorimetric ammonia formation, Lineweaver-Burk.
Excerpt: as §1

Series [3] deals with NC(=O)c1ccncc1. Briefly: colorimetric ammonia formation, Lineweaver-Burk.
Excerpt: as §1

The subject of series [4] is NNC(=O)c1ccncc1. Briefly: colorimetric hydrazine formation (p-dimethylaminobenzaldehyde), Lineweaver-Burk. From the text:
(§2) colorimetric hydrazine formation (p-dimethylaminobenzaldehyde), Lineweaver-Burk on PzaA

In series [5] the test system is NNC(=O)c1cccnc1. Described as above.
Excerpt: as §2

Usually Vmax stands for the top rate of the reaction or transport when substrate is in excess. On to “PzaA (Mycolicibacterium smegmatis MC2 155)”, for which the Km in series [1] is given as 0.0887 (0.0113) mM; in series [2] it was 0.143 (0.0078) mM; in series [3] it was 0.145 (0.0203) mM; in series [4] it was 1.20 (0.271) mM; in series [5], 1.26 (0.0475) mM. Also, the Vmax in series [1] came to 37.2 µmol/min/mg; in series [2], 11.7 µmol/min/mg; in series [3] it was 6.48 µmol/min/mg; in series [4] it was 1.51 µmol/min/mg; in series [5], 23.7 µmol/min/mg. Further, the Vmax/Km in series [1] was found to be 419000 µL/min/mg; in series [2] it was 81800 µL/min/mg; in series [3], 44700 µL/min/mg; in series [4] it was 1260 µL/min/mg; in series [5], 18800 µL/min/mg.

The record behind these values is article PMC10199920, “Identification of a mycobacterial hydrazidase, an isoniazid-hydrolyzing enzyme” (Scientific Reports, 2023).
